Experimental findings from article PMC9388093 are described below.

In the data set the target is T1, rPfTPx-1 (thioredoxin peroxidase 1) (Plasmodium falciparum, UniProt Q8IL80 1-195).
T1 sequence: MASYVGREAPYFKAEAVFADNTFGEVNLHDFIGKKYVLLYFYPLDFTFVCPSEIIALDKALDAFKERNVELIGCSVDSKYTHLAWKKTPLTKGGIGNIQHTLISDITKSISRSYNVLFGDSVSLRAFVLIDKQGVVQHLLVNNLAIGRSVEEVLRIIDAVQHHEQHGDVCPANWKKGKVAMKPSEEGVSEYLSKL
In words: EMSA. Background: In EMSA bound probe runs differently from free probe, usually more slowly.

B1: IntPE (PE) RNA probe, fluorescent (ssRNA)
RNA: AUCACAUACAUAUACACAAACACUUAUACAUACACAUA
Turning to B1, the binding result is “binds”.
